Reference: article PMC6423418 (Human Molecular Genetics, 2018)
Numbering of substitutions follows the chain as printed. Names and notes keep the numbering of the source. Values joined by “and” are separate entries in the source; they are usually repeats but may differ in a detail not shown here. Identical values can stand only once.

B1: Wild-type TWINKLE lacking the mitochondrial targeting sequence (residues 1-42) (enzyme, human, UniProt Q96RR1 43-684, looked up)
chain: ETLQALDMPVLPVTATEIRQYLRGHGIPFQDGHSCLRALSPFAESSQLKGQTGVTTSFSLFIDKTTGHFLCMTSLAEGSWEDFQASVEGRGDGAREGFLLSKAPEFEDSEEVRRIWNRAIPLWELPDQEEVQLADTMFGLTKVTDDTLKRFSVRYLRPARSLVFPWFSPGGSGLRGLKLLEAKCQGDGVSYEETTIPRPSAYHNLFGLPLISRRDAEVVLTSRELDSLALNQSTGLPTLTLPRGTTCLPPALLPYLEQFRRIVFWLGDDLRSWEAAKLFARKLNPKRCFLVRPGDQQPRPLEALNGGFNLSRILRTALPAWHKSIVSFRQLREEVLGELSNVEQAAGLRWSRFPDLNRILKGHRKGELTVFTGPTGSGKTTFISEYALDLCSQGVNTLWGSFEISNVRLARVMLTQFAEGRLEDQLDKYDHWADRFEDLPLYFMTFHGQQSIRTVIDTMQHAVYVYDICHVIIDNLQFMMGHEQLSTDRIAAQDYIIGVFRKFATDNNCHVTLVIHPRKEDDDKELQTASIFGSAKASQEADNVLILQDRKLVTGPGKRYLQVSKNRFDGDVGVFPLEFNKNSLTFSIPPKNKARLKKIKDDTGPVAKKPSSGKKGATTQNSEICSGQAPTPDQPDTSKRSK
B2: S369P TWINKLE (enzyme, human, UniProt Q96RR1 43-684, looked up)
chain: B1 chain with S327P
B3: W315L TWINKLE (enzyme, human, UniProt Q96RR1 43-684, looked up)
chain: B1 chain with W273L
B4: R334Q TWINKLE (enzyme, human, UniProt Q96RR1 43-684, looked up)
chain: B1 chain with R292Q
B5: P335L TWINKLE (enzyme, human, UniProt Q96RR1 43-684, looked up)
chain: B1 chain with P293L
B6: L381P TWINKLE (enzyme, human, UniProt Q96RR1 43-684, looked up)
chain: B1 chain with L339P

Target: the molecule itself
Assay: negative-stain single-particle electron microscopy

For B1, which “stoichiometry N” value is on record?
Its value is 6 and 7.

B2 was tested. Which “stoichiometry N” value did it give?
The value was 6 and 7.

For B3, which “stoichiometry N” value is on record?
The value was 7.

For B4, which “stoichiometry N” value is on record?
The value was 7 and 6.

How did the “stoichiometry N” value turn out when B5 was run?
Its value is 6 and 7 and 8 and 9.

With B6 as the protein, how does the “stoichiometry N” value read?
The value was 6 and 7 and 5.

Target: the molecule itself
Assay: negative-stain single-particle electron microscopy
Remark: another data set of the same source

B1 was tested. Which “oligomeric state (%), heptamer” value did it give?
Its value is 41.1%.

What about the “oligomeric state (%), hexamer” value of the same protein?
The value was 58.9%.

How did the “oligomeric state (%), broken ring” value turn out when B2 was run?
The value was 45.2%.

What about the “oligomeric state (%), heptamer” value of the same protein?
Its value is 41.6%.

And the “oligomeric state (%), hexamer” value?
The value was 13.2%.

What does the source list for B3?
oligomeric state (%), broken ring: 12.9%; oligomeric state (%), heptamer: 87.1%

For B4, which “oligomeric state (%), broken ring” value is on record?
Its value is 8.3%.

And the “oligomeric state (%), heptamer” value?
The value was 55.1%.

What about the “oligomeric state (%), hexamer” value of the same protein?
The value was 36.6%.

For B5, which “oligomeric state (%), broken ring” value is on record?
Its value is 6.4%.

What about the “oligomeric state (%), heptamer” value of the same protein?
Its value is 72.3%.

And the “oligomeric state (%), hexamer” value?
Its value is 4.7%.

Which results are given for B6?
oligomeric state (%), broken ring: 26.9%; oligomeric state (%), heptamer: 28.6%; oligomeric state (%), hexamer: 33%
